Experimental data as given in patent US20060177448.

Assays:
[1] = molecular target: gDHER2(DIV)-IgG (UniProt P04626)
[2] = test system: other HER receptors

Substance | in vitro HER2 cleavage (sheddase) assay, stained gel [1] | in vitro cleavage of HER-Fc proteins [2]
purified catalytic domain of MT3-MMP (MMP-16) | All MT-MMPs except MMP-14 efficiently cleave gDHER2(DIV)-IgG substrate | –
purified catalytic domain of MT4-MMP (MMP-19) | All MT-MMPs except MMP-14 efficiently cleave gDHER2(DIV)-IgG substrate | –
MMP-15 (MT2-MMP), construct not specified at that place | – | MMP-15 does not clip other HER receptors
purified catalytic domain of MT2-MMP (MMP-15) | All MT-MMPs except MMP-14 efficiently cleave gDHER2(DIV)-IgG substrate | –
